Like-named read-outs stand apart in the source and are kept apart here. Primed or numbered codes have the meaning given here. No end group written: not given here. Biotin′ = biotin label at the C-terminus

The text below walks through data of US20210155689A1 (SHANGHAI PHARMAEXPLORER, published 2021).

Experiment [1] concerns the target human LAG-3 on cells (HEK293-hLAG-3 stable cell line) (human) (UniProt P18627). The experiment can be described thus: FACS, HEK293-hLAG-3, antibody 1.6 nM.
The target is the same in experiment [2]. The experiment is described as follows: FACS, HEK293-hLAG-3, antibody 0 nM.
Experiment [3] has the same target. The experiment can be described thus: FACS, HEK293-hLAG-3, antibody 8 nM.
The target in experiment [4] is LAG-3-hFc protein (human LAG-3 extracellular region with hFc tag) (human) (UniProt P18627). The experiment can be described thus: FACS, inhibition of LAG-3-hFc binding to MHC II on Raji cells, antibody 0.823 nM.
Experiment [5] addresses monkey LAG-3 on cells (HEK293-cLAG-3 stable cell line) (monkey). The experiment can be described thus: FACS, HEK293-cLAG-3, antibody 1.600 nM.
Experiment [6] addresses human LAG-3 on cells (HEK293-hLAG-3 stable cell line) (human) (UniProt P18627). The experiment is described as follows: FACS, HEK293-hLAG-3, antibody 1.600 nM.
Experiment [7] addresses LAG-3-hFc protein (human LAG-3 extracellular region with hFc tag) (human) (UniProt P18627). The experiment is described as follows: ELISA, inhibition of LSECtin-His binding to coated LAG-3-hFc, antibody 0.064 nM, replicate 2.
The target in experiment [8] is human LAG-3 on cells (HEK293-hLAG-3 stable cell line) (human) (UniProt P18627). The experiment is described as follows: FACS, HEK293-hLAG-3, antibody 40.000 nM.
In experiment [9] the target is monkey LAG-3 on cells (HEK293-cLAG-3 stable cell line) (monkey). The experiment is described as follows: FACS, HEK293-cLAG-3, antibody 200.000 nM.
For experiment [10], the target named is human LAG-3 on cells (HEK293-hLAG-3 stable cell line) (human) (UniProt P18627). The experiment is described as follows: FACS, HEK293-hLAG-3, antibody 0.064 nM.
For experiment [11], the target named is LAG-3-hFc protein (human LAG-3 extracellular region with hFc tag) (human) (UniProt P18627). The experiment is described as follows: ELISA, inhibition of LSECtin-His binding to coated LAG-3-hFc, antibody 8.000 nM, replicate 2.
Experiment [12] shares this target. The experiment can be described thus: ELISA, inhibition of LSECtin-His binding to coated LAG-3-hFc, antibody 0.000 nM, replicate 2.
The target is the same in experiment [13]. The experiment is described as follows: ELISA, inhibition of LSECtin-His binding to coated LAG-3-hFc, antibody 0.320 nM, replicate 1.
The target of experiment [14] is T1, human LAG-3 on cells (HEK293-hLAG-3 stable cell line) (human, UniProt P18627 23-525).
T1 sequence: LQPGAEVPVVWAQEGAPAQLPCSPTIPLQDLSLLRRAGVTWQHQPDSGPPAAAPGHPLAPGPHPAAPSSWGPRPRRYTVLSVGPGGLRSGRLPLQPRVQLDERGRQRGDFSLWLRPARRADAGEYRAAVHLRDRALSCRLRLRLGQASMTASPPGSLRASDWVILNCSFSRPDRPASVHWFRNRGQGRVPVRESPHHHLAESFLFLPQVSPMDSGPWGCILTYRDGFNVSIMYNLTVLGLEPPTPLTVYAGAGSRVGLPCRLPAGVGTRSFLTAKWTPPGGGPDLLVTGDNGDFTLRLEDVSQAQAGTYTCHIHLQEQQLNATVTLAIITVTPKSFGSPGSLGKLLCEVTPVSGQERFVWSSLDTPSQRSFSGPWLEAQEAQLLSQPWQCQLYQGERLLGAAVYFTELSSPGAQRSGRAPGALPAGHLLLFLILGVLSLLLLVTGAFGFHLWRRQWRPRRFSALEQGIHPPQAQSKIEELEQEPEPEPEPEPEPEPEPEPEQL
The experiment can be described thus: FACS, HEK293-hLAG-3, antibody 0.32 nM.

For experiment [15], the target named is T1, human LAG-3 on cells (HEK293-hLAG-3 …). The experiment is described as follows: FACS, HEK293-hLAG-3, antibody 0.32 nM. From the text:
A. The binding of antibodies to LAG-3 expressing cells was detected by Flow cytometry (FACS), wherein the method was according to that of Example 5.
This is another data set of the same source.

For the next experiment, the target named is T2, PHPAAPSSWGPRK-Biotin (human).
T2 construct: Overlapping peptide of the outer loop of human LAG-3; also called LAG-3 Extra cyclic peptide
T2 peptide: PHPAAPSSWGPRK-{Biotin′}
The experiment can be described thus: peptide scanning ELISA, biotin peptide on streptavidin.

The target in a further experiment is T3, HPAAPSSWGPRPK-Biotin (human).
T3 construct: Overlapping peptide of the outer loop of human LAG-3; also called LAG-3 Extra cyclic peptide
T3 peptide: HPAAPSSWGPRPK-{Biotin′}
Described as above.

Sequence of monkey LAG-3 on cells (HEK293-cLAG-3 stable cell line) (monkey) (P18627 other isoform, or with tags, fused parts or gaps limits assumed): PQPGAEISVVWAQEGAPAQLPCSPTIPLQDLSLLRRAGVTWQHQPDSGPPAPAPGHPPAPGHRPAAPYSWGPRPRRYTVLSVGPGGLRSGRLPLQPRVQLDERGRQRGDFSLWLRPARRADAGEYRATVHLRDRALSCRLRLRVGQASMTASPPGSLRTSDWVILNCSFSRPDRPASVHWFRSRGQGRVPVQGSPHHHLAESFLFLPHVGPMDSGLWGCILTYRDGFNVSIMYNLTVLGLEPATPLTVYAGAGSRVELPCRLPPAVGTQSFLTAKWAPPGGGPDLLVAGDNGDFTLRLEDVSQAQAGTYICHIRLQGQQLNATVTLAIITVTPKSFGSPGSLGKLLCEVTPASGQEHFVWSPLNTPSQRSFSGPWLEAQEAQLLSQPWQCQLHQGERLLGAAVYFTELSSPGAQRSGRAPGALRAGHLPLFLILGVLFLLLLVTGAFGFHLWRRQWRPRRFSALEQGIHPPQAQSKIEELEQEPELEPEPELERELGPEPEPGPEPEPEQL

As for hIgG control (antibody), the Mean fluorescence intensity in [1] worked out at 4; in [2] it was 4; in experiment [3], 4; in [5] it was 3.25; in experiment [6], 2.7; in [8], 3.1. Further, the results for the Mean fluorescence intensity in experiment [9] and in [10] were 2.9 and 4, respectively. Also, the Inhibition rate (%) in [4] was 10.2%; in [7] it was -11.2%; in experiment [11], -15.1%; in experiment [12], -3.6%; in experiment [13] it was -7.9%.

B1: 556F6B8 mouse-human chimeric antibody (antibody, V domains shown)
VH: RVQLKQSGPGLVQPSQSLSITCTVSGFSLIKYGVHWVRQSPGEGLEWLGVIWRGGITDYNAAFMSRLSITKDNSKSQVFFKMNSLQADDTAIYYCAKWDGPLAMDYWGQGTSVTVSS
VL: DIVMTQSHKFLSTSVGDRVSITCKASQDVGTTVAWYQQKPGQSPKLLIYWASTRHTGVPDRFTGSGSGTDFTLTISNVQSEDLADYFCQQYSSYPYTFGGGTKLEIK
notes: also called mAb123-556F6B8; 556F8B8
As for B1, the Mean fluorescence intensity in experiment [14] was found to be 29.

B2: 405B8H3 mouse-human chimeric antibody (antibody, V domains shown)
VH: QVQLQQSGAELVRPGASVTLSCKASGYTFTDYEMHWVKQTPVHGLEWIGATDPETGNSAYNQKFKGKAIMTADKSSSTAYMELRSLTSEDSAVYYCISTGWNDWGQGTSLTVSS
VL: DIKMTQSPSSMYASLGERVTITCKASQDINSYLSWFQQKPGKSPKTLIYRADRLLDGVPSRFSGSGSGQDYSLTISSLEYGDMGIYYCLQYDEFPYTFGGGTKLEIK
notes: also called mAb103-405B8H3
B2 had a Mean fluorescence intensity in experiment [15] of 54.

B3: 105F1E10 (mouse antibody purified from hybridoma) (antibody, V domains shown)
VH: EVQLQQSGPELVKPGASVKMSCRASGYTFTDFKMHWMKQSHGKSLEWIGYIAPNNGGTAYNQKFRGKATLTVNESSNTAYMELRSLTSEDSAVYYCVDWDDVDYWGQGTTLTVSS
VL: DIKMTQSPSSMYASLGERVTITCKASQDINSYLSWFQQKSGKSPKTLIYRANRLVDGVPSRFSGSGSGQDYSLTISSLEYEDMGIYYCLQYVEFPLTFGAGTKLELK
notes: also called mAb009-105F1E10
B3: the binding result with PHPAAPSSWGPRK-Biotin and with HPAAPSSWGPRPK-Biotin was “binds” each time.
